Results published in patent US20230322857A1, “RECOMBINANTLY ENGINEERED POLYPEPTIDES CAPABLE OF RECYCLING NONCANONICAL COFACTORS” (The Regents of the University of California, priority 2022, published 2023).

What was measured:
[1] = Steady-state kinetics of TS-PTDH variants with NAD^+; assay type: biochemical; settings: 100 mM MOPS, pH 7.25, 10 mM sodium phosphite, varied cofactor concentrations; n = 3
Description: (§1) Purification and Characterization of TS-PTDH Variants. The E. coli BL21(DE3) strains harboring pQElac plasmids encoding the TS-PTDH or TS-PTDH variants were grown in 2×YT media with kanamycin and ampicillin at 37° C. The IPTG-inducible expression, Ni-affinity purification, and protein concentration determination was conducted as described above.
(§2) The steady-state kinetic parameters toward the coenzymes were measured by spiking purified protein into a 100 μL reaction mixture containing 100 mM MOPS, pH 7.25, 10 mM sodium Pt, and varied cofactor concentrations from 0.02 mM to 5 mM at 25° C. The kinetic parameters were measured by monitoring the […] of reduced coenzyme at 340 nm. Data were fitted to the Michaelis-Menten equation to generate estimates of KM and kcat values.

[2] = Steady-state kinetics of TS-PTDH variants with NADP^+; assay type: biochemical; settings: 100 mM MOPS, pH 7.25, 10 mM sodium phosphite, varied cofactor concentrations; n = 3
Description: as §1, §2

[3] = Steady-state kinetics of TS-PTDH variants with NMN^+; assay type: biochemical; settings: for Km / NMN^+ kcat: 100 mM MOPS, pH 7.25, 10 mM sodium phosphite; for increased catalytic efficiency (kcat/Km) for NMN^+ compared to TS-PTDH A155N: vs parent enzyme TS-PTDH A155N
Description: as §1, §2

E. coli SHuffle strain [4] = experiment: Recapitulation of growth restoration with TS-PTDH variants in SHuffle strain; assay type: cell-based, Escherichia coli; settings: spotted onto agar selection plates
Description: Selection of TS-PTDH Library. A total of 50 μL pre-made SHuffle/pLZ311 or SHuffle/pLZ312 electro-competent cells were transformed with 2 μL TS-PTDH A155N-E175-A176-L208 NNK library DNA (pLZ316) via electroporation as described above. After rescue in SOC media for 1 h, cultures were combined in 10 mL 2×YT with 10 g/L glucose, 0.5% arabinose, kanamycin and ampicillin. 0.2, or 1 μL of culture was immediately taken from the culture and plated on an 2×YT agar plates with kanamycin and ampicillin. The plate was incubated at 37° C. overnight, and the number of colonies formed was counted to estimate the library size. The liquid cultures were incubated at 37° C. with shaking for 10 h. Cells (1 mL) were washed 3 times and re-suspended in M9 Buffer. Targeted serial dilutions of cells were prepared in M9 buffer and 5 μL aliquots were dispensed in series on an agar plate of M9 selection media containing 0.5 mM diamide, 5 or 1 g/L yeast extract, 10 g/L glucose, 0.5% arabinose, 0.5 mM IPTG, 10 g/L sodium phosphite, kanamycin, ampicillin, and 5 mM NMN^+. Selection plates were incubated at 37° C., and photographs were taken to document growth progress. The independent transformants sampled was calculated as 2.4×10^6 and 2.5×10^6 colonies when plated on 5 and 1 g/L yeast extract, respectively. TS-PTDH and the template of the library, TS-PTDH A155N, were cultured in the same conditions as controls. The colonies were numbered by the order of appearance. The selected cells were re-streaked on fresh agar plate with identical media and incubated until single colonies formed on the plate. Variants that cannot forma single colony may be false positives. After extracting the plasmids from each re-streaked colony, the chosen TS-PTDH variants were amplified and moved into the pQElac vector containing a N-terminal 6×His tag for protein purification and characterization. […] 2 μL of a serial dilution of cells were deposited onto a growth selection plate and grown at 37° C.

[5] = BNA(H)-mediated PTDH biotransformation with TsOYE; assay type: biochemical
Description: BNA(H)-Mediated PTDH Biotransformation. Reactions with BNA^+, see FIG. 10D, contained 100 mM MOPS-NaOH at pH 7.6, 10 mM KIP, 100 mM sodium phosphite, and 2% v/v DMSO. BNA^+Cl^−, prepared by refluxing equimolar amounts of nicotinamide and benzyl chloride in acetonitrile overnight, followed by precipitation with diethyl ether on ice was supplied to the reactions at final concentrations of 0, 5, 10, or 20 mM. Reactions were initiated by spiking TsOYE and the appropriate TS-PTDH variant to a final concentration of 10 μM, each. Reaction mixtures were incubated at 30° C. on a Thermomixer C (Eppendorf) with shaking at 900 rpm for 24 h, extracted with 500 μL ethyl acetate containing 5 mM n-dodecane, and analyzed by GC-FID. The cycling system with no BNA was used to determine the background activity of the cycling systems. This value was subtracted from the final levodione concentrations in the 5-, 10-, and 20-mM samples to determine the BNA(H)^− specific levodione production. Concentrations of levodione product were determined using a calibration line (0-10 mM, 6 levels, using n-dodecane as internal standard). The y-intercept of the calibration line was forced through 0.
For BNA(H)-mediated reactions, gas chromatography analyses were performed on a GC-2010 (Shimadzu, Japan) equipped with an AOC-20i auto injector and a flame ionization detector (FID), using a CP-Sil 5 column (25 m×0.25 mm×[…]). 1 μL of sample was injected with a split ratio of 100:1 and injector at 340° C. The FID was maintained at 360° C. Nitrogen was used as the carrier gas, with a linear velocity of 30 cm/s. The oven was held at 135° C. for 1 min, ramped at 15° C./min to 215° C., then 30° C./min to 345° C., and held at 345° C. for 1 min.
Expression and Purification of Proteins for BNA(H)-Mediated Biotransformation Reactions. E. coli BL21(DE3) strains were transformed with the plasmids containing the TS-PTDH variants and grown on LB-agar plates containing ampicillin at 37° C. overnight. An overnight culture, 15 mL LB supplemented with ampicillin, was inoculated with a single colony, and grown at 37° C., 170 rpm overnight. 2 L baffled shake-flasks with 250 mL of 2×YT media containing 200 μg/mL ampicillin, were inoculated with the overnight culture, grown at 37° C., 170 rpm until OD600 of ˜1.0, induced with IPTG (0.5 mM), and grown at 30° C. and 170 rpm for 24 h. Cells were harvested by centrifugation at 18,000×g, 4° C., 10 min and stored at −20° C. until purification.
The pellet was resuspended in four volumes loading buffer (50 mM sodium phosphate, 300 mM sodium chloride, 10 mM imidazole, pH 7.7), and lysed on ice by sonication (Branson sonifier 250; 15 min total, 40% duty cycle, output control 3.5, 2 mm tip). The lysate was clarified (21,000×g, 4° C., 30 min followed by 0.2 μm filtration), and loaded (1 mL/min) onto a Nickel-HisTrap FF crude (1 mL) column, washed with loading buffer (12 column volumes, CV), followed by a step with 10% elution buffer (loading buffer containing 250 mM imidazole; 12 CV). The protein was then eluted with 100% elution buffer and collected in fractions of 0.5 mL. Fractions containing protein were combined and dialyzed against ice-cold dialysis buffer (50 mM sodium phosphate, pH 7.7, 800 mL); the buffer was renewed after the first 2 h of dialysis. Following the dialysis, the protein was mixed with glycerol (20% v/v final concentration). Enzyme concentrations were estimated by the absorbance at 280 nm (non-denatured protein), using predicted extinction coefficients (wild type and LY-13: 26470, LY-7: […]; web.expasy.org/protparam/). The protein was aliquoted, flash frozen in liquid nitrogen, and stored at −80° C. until use. […]

E. coli SHuffle strain [6] = experiment: GDH-Gor coupled growth rescue in SHuffle strain; assay type: cell-based, Escherichia coli; settings: 0.5 mM diamide, NMN^+ 0, 2, 4 and 6 mM
Description: Culture conditions for GDH-Gor coupled growth rescue in SHuffle strain. The electro-competent cells of SHuffle harboring pLZ311 or pLZ312 were made as follows: The SHuffle cells were cultured in 200 mL SOB media with spectinomycin at 30° C. with shaking until OD600 reached 0.4-0.6. The culture was chilled on ice for 15 min and the cells were pelleted at 4° C., 4,000×g. Collected cells were washed with 10% glycerol in water (sterile, ice cold) and resuspended with 5 mL of 10% glycerol in water (sterile, ice cold), and stored as 50 μL aliquots at −80° C.
Glucose facilitator (encoded by glf) was used for uptake of unphosphorylated glucose into the cells. The co-transformation of Bs gdh and Zm glf was performed as follows: Thaw SHuffle/pLZ311 or SHuffle/pLZ312 electro-competent cells on ice, add 1 μL Bs gdh (pEK101 or pLZ210) and 1 μL Zm glf(pSM109) plasmid DNA to 50 μL competent cells, mix, and electroporate. Cells were recovered with 1 mL SOC at 37° C. with shaking for 1 h. The cells were added to 10 mL 2×YT with 10 g/L glucose, 0.5% arabinose, kanamycin, chloramphenicol, and ampicillin. After incubation at 37° C. with shaking for 10 h, 1 mL cells were washed 3 times and re-suspended in M9 buffer (1×BD Difco M9 Salts). Targeted dilutions after cells reached density of OD600 0.6 were prepared in M9 buffer and 5 μL aliquots were dispensed in series on an agar plate of M9 selection media containing 0.5 mM diamide, 1 g/L yeast extract, 10 g/L glucose, 0.5% arabinose, 0.5 mM IPTG, ampicillin, kanamycin, chloramphenicol and serial NMN concentrations of 0, 2, 4 and 6 mM. Selection plates were incubated at 37° C., and photos were taken to document growth progress.

[7] = varied cofactor concentrations, n = 3

B1: TS-PTDH A155N: Pseudomonas stutzeri phosphite dehydrogenase with A155N substitution (SEQ ID NO:3) (protein)
chain: MLPKLVITHRVHEEILQLLAPHCELITNQTDSTLTREEILRRCRDAQAMMAFMPDRVDADFLQACPELRVIGCALKGFDNFDVDACTARGVWLTFVPDLLTVPTAELAIGLAVGLGRHLRAADAFVRSGKFRGWQPRFYGTGLDNATVGFLGMGNIGLAMADRLQGWGATLQYHEAKALDTQTEQRLGLRQVACSELFASSDFILLALPLNADTLHLVNAELLALVRPGALLVNPCRGSVVDEAAVLAALERGQLGGYAADVFEMEDWARADRPQQIDPALLAHPNTLFTPHIGSAVRAVRLEIERCAAQNILQALAGERPINAVNRLPKANPAAD
Km [1]: 80 ± 10 µM
NAD^+ kcat [1]: 1.46 ± 0.13 s⁻¹
Km [2]: 630 ± 70 µM
NADP^+ kcat [2]: 0.88 ± 0.08 s⁻¹
Km ([3]; enzyme could not be saturated): > 5 mM
increase in catalytic efficiency for NMN^+ compared to TS-PTDH (wild type enzyme) ([3]; vs TS-PTDH): ~30 fold
growth restoration, co-expression with NMNH-specific Gor Ortho (E. coli SHuffle strain [4]): restored growth at a low level

B2: LY-7: phosphite dehydrogenase variant with A155N, E175W, A176G, L208V (SEQ ID NO:5) (protein)
chain: MLPKLVITHRVHEEILQLLAPHCELITNQTDSTLTREEILRRCRDAQAMMAFMPDRVDADFLQACPELRVIGCALKGFDNFDVDACTARGVWLTFVPDLLTVPTAELAIGLAVGLGRHLRAADAFVRSGKFRGWQPRFYGTGLDNATVGFLGMGNIGLAMADRLQGWGATLQYHWGKALDTQTEQRLGLRQVACSELFASSDFILLAVPLNADTLHLVNAELLALVRPGALLVNPCRGSVVDEAAVLAALERGQLGGYAADVFEMEDWARADRPQQIDPALLAHPNTLFTPHIGSAVRAVRLEIERCAAQNILQALAGERPINAVNRLPKANPAAD
Km [1]: 750 ± 30 µM
NAD^+ kcat [1]: 0.71 ± 0.04 s⁻¹
Km [2]: 110 ± 10 µM
NADP^+ kcat [2]: 0.56 ± 0.03 s⁻¹
Km [3, 7]: 1.4 ± 0.1 mM
NMN^+ kcat [3, 7]: 0.16 ± 0.01 s⁻¹
increased catalytic efficiency (kcat/Km) for NMN^+ compared to TS-PTDH A155N [3]: ~11 fold
activity / cycling with BNA^+ compared to wild type [5]: enhanced activity for BNA^+ reduction
response of biotransformation efficiency to BNA^+ concentration ([5]; 0, 5, 10, or 20 mM BNA^+): cofactor dose-dependent response
utilization of the BNA^+ pool relative to the wild type protein ([5]; 20 mM BNA^+ supplementation, TsOYE, 24 h): improved utilization of the BNA^+ pool

B3: LY-6: phosphite dehydrogenase variant with A155N, E175Q, A176S (SEQ ID NO:4) (protein)
chain: MLPKLVITHRVHEEILQLLAPHCELITNQTDSTLTREEILRRCRDAQAMMAFMPDRVDADFLQACPELRVIGCALKGFDNFDVDACTARGVWLTFVPDLLTVPTAELAIGLAVGLGRHLRAADAFVRSGKFRGWQPRFYGTGLDNATVGFLGMGNIGLAMADRLQGWGATLQYHQSKALDTQTEQRLGLRQVACSELFASSDFILLALPLNADTLHLVNAELLALVRPGALLVNPCRGSVVDEAAVLAALERGQLGGYAADVFEMEDWARADRPQQIDPALLAHPNTLFTPHIGSAVRAVRLEIERCAAQNILQALAGERPINAVNRLPKANPAAD
Km [1]: 110 ± 10 µM
NAD^+ kcat [1]: 1.04 ± 0.08 s⁻¹
Km [2]: 50 ± 10 µM
NADP^+ kcat [2]: 0.95 ± 0.05 s⁻¹
Km [3, 7]: 1.1 ± 0.1 mM
NMN^+ kcat [3, 7]: 0.18 ± 0.01 s⁻¹
increased catalytic efficiency (kcat/Km) for NMN^+ compared to TS-PTDH A155N [3]: ~17 fold

B4: wild type Bs GDH: wild type Bacillus subtilis glucose dehydrogenase, reduces NAD(P)^+ but not NMN^+ (protein, UniProt P12310 1-261, looked up)
Glucose 1-dehydrogenase: MYPDLKGKVVAITGAASGLGKAMAIRFGKEQAKVVINYYSNKQDPNEVKEEVIKAGGEAVVVQGDVTKEEDVKNIVQTAIKEFGTLDIMINNAGLENPVPSHEMPLKDWDKVIGTNLTGAFLGSREAIKYFVENDIKGNVINMSSVHEVIPWPLFVHYAASKGGIKLMTETLALEYAPKGIRVNNIGPGAINTPINAEKFADPKQKADVESMIPMGYIGEPEEIAAVAAWLASKEASYVTGITLFADGGMTQYPSFQAGRG
cell growth of SHuffle strain harboring Gor Ortho with the NMN^+-reducing enzyme (E. coli SHuffle strain [6]): did not support cell growth
